In US5336615:

Biological target: human plasminogen (human) (UniProt P00747)

Substance “bovine urokinase-type plasminogen activator (u-PA) (from UniProt Q05589) (enzyme)” has a u-PA activity (mPU/µg cell protein) of 4.9.
